Measurements taken from patent publication US20220402995A1 (TOSOH, published 2022).

Columns and labels:
[1] = biological target: T1, VLP2 (virus-like particles of AAV2) (AAV2, UniProt P03135 1-735; P03135 1-598; P03135 1-533); assay: ELISA on VLP2; binding after 43°C 15 min / untreated
T1 construct: Empty AAV2 capsid; background says about 60 protein molecules, VP1:VP2:VP3 = 1:1:10; Immobilised on the ELISA plate

[2] = biological target: T1, VLP2 (virus-like particles of AAV2); assay: ELISA on VLP2; binding after pH 10.0 41.2°C 15 min / untreated

T1 sequence (P03135 whole entry, chain 1 of 3): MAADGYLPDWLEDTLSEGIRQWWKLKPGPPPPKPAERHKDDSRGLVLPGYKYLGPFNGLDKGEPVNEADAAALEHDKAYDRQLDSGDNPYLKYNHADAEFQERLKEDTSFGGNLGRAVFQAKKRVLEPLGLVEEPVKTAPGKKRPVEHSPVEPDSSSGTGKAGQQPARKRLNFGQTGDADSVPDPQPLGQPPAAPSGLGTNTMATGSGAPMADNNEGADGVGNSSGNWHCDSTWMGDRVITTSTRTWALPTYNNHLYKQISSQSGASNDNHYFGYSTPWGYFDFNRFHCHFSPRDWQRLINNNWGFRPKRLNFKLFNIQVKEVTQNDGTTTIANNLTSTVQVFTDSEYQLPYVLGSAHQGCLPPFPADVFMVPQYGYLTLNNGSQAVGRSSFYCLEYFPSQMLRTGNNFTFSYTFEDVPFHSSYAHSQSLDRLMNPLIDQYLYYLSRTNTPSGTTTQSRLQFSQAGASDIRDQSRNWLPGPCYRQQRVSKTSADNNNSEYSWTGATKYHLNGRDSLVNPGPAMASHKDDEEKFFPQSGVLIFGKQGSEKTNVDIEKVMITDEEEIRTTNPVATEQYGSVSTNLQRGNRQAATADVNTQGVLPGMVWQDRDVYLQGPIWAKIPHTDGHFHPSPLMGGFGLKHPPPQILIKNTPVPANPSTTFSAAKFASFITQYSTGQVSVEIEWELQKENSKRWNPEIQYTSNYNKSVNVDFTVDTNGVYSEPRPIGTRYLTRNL
T1 sequence (P03135 139-735, tags left off, chain 2 of 3): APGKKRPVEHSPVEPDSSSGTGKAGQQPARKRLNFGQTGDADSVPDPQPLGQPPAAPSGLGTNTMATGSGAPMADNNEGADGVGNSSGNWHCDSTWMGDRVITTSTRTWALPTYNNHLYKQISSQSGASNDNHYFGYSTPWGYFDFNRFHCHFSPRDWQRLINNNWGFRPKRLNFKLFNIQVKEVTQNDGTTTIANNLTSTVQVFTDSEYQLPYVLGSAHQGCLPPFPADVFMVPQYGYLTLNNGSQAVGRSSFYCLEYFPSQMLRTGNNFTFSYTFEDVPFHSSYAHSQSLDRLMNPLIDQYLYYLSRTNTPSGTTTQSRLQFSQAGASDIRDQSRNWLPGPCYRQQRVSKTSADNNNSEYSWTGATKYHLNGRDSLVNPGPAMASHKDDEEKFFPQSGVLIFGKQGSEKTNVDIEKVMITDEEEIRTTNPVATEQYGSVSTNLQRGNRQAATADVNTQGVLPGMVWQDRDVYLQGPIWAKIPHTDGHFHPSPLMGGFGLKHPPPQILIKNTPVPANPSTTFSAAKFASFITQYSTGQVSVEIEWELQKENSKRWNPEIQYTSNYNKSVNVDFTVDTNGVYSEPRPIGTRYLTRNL
T1 sequence (P03135 203-735, chain 3 of 3): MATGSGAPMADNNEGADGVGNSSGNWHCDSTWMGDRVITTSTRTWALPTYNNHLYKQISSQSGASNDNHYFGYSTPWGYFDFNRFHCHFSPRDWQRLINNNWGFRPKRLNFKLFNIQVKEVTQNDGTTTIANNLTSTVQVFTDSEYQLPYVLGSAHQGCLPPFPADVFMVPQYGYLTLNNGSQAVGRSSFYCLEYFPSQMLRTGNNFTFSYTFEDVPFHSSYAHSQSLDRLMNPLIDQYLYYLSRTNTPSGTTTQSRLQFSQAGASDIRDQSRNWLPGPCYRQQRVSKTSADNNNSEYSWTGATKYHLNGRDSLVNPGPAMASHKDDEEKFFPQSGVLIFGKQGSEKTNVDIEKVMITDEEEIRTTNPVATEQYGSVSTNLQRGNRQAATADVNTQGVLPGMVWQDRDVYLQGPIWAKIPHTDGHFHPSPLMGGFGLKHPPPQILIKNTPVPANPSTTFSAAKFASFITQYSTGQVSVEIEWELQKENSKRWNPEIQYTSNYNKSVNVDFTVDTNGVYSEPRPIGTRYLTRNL

Binder	Residual activity [%] [1] [%]	Residual activity [%] [2] [%]
AAV-binding protein No. 27 (Tyr331Cys, Leu376Pro) (receptor) MGSAGESVQITLPKNEVQLNACVLQEPPKGETYTYDWQLITHPRDYSGEMEGKHSQILKLSKLTPGPYEFKVIVEGQNAHGEGYVNVTVKPEPRKNRPPIAIVSPQFQEISLPTTSTVIDGSQSTDDDKIVQYHWEELKGPLREEKISEDTAILKLSKLVPGNYTFSLTVVDSDGATNSTTANLTVNKAVDHHHHHH	74.4	–
AAV-binding protein No. 28 (Tyr331Cys, Glu384Gly) (receptor) MGSAGESVQITLPKNEVQLNACVLQEPPKGETYTYDWQLITHPRDYSGEMEGKHSQILKLSKLTPGLYEFKVIVGGQNAHGEGYVNVTVKPEPRKNRPPIAIVSPQFQEISLPTTSTVIDGSQSTDDDKIVQYHWEELKGPLREEKISEDTAILKLSKLVPGNYTFSLTVVDSDGATNSTTANLTVNKAVDHHHHHH	83.7	–
AAV-binding protein No. 31 (Tyr342His, Ile349Thr) (receptor) MGSAGESVQITLPKNEVQLNAYVLQEPPKGETHTYDWQLTTHPRDYSGEMEGKHSQILKLSKLTPGLYEFKVIVEGQNAHGEGYVNVTVKPEPRKNRPPIAIVSPQFQEISLPTTSTVIDGSQSTDDDKIVQYHWEELKGPLREEKISEDTAILKLSKLVPGNYTFSLTVVDSDGATNSTTANLTVNKAVDHHHHHH	66.8	–
AAV-binding protein No. 33 (Tyr344His, His363Arg) (receptor) MGSAGESVQITLPKNEVQLNAYVLQEPPKGETYTHDWQLITHPRDYSGEMEGKRSQILKLSKLTPGLYEFKVIVEGQNAHGEGYVNVTVKPEPRKNRPPIAIVSPQFQEISLPTTSTVIDGSQSTDDDKIVQYHWEELKGPLREEKISEDTAILKLSKLVPGNYTFSLTVVDSDGATNSTTANLTVNKAVDHHHHHH	82.2	–
AAV-binding protein No. 34 (Trp346Arg, Glu458Gly) (receptor) MGSAGESVQITLPKNEVQLNAYVLQEPPKGETYTYDRQLITHPRDYSGEMEGKHSQILKLSKLTPGLYEFKVIVEGQNAHGEGYVNVTVKPEPRKNRPPIAIVSPQFQEISLPTTSTVIDGSQSTDDDKIVQYHWEELKGPLREEKISGDTAILKLSKLVPGNYTFSLTVVDSDGATNSTTANLTVNKAVDHHHHHH	78.1	–
AAV-binding protein No. 35 (Gln347Leu, Thr373Ala) (receptor) MGSAGESVQITLPKNEVQLNAYVLQEPPKGETYTYDWLLITHPRDYSGEMEGKHSQILKLSKLAPGLYEFKVIVEGQNAHGEGYVNVTVKPEPRKNRPPIAIVSPQFQEISLPTTSTVIDGSQSTDDDKIVQYHWEELKGPLREEKISEDTAILKLSKLVPGNYTFSLTVVDSDGATNSTTANLTVNKAVDHHHHHH	85.9	–
AAV-binding protein No. 37 (Gln365Arg, His389Gln) (receptor) MGSAGESVQITLPKNEVQLNAYVLQEPPKGETYTYDWQLITHPRDYSGEMEGKHSRILKLSKLTPGLYEFKVIVEGQNAQGEGYVNVTVKPEPRKNRPPIAIVSPQFQEISLPTTSTVIDGSQSTDDDKIVQYHWEELKGPLREEKISEDTAILKLSKLVPGNYTFSLTVVDSDGATNSTTANLTVNKAVDHHHHHH	70.1	–
AAV-binding protein No. 38 (Gln365Arg, Gln415Leu) (receptor) MGSAGESVQITLPKNEVQLNAYVLQEPPKGETYTYDWQLITHPRDYSGEMEGKHSRILKLSKLTPGLYEFKVIVEGQNAHGEGYVNVTVKPEPRKNRPPIAIVSPLFQEISLPTTSTVIDGSQSTDDDKIVQYHWEELKGPLREEKISEDTAILKLSKLVPGNYTFSLTVVDSDGATNSTTANLTVNKAVDHHHHHH	65.3	–
AAV-binding protein No. 39 (Ile366Thr, Gln441Leu) (receptor) MGSAGESVQITLPKNEVQLNAYVLQEPPKGETYTYDWQLITHPRDYSGEMEGKHSQTLKLSKLTPGLYEFKVIVEGQNAHGEGYVNVTVKPEPRKNRPPIAIVSPQFQEISLPTTSTVIDGSQSTDDDKIVLYHWEELKGPLREEKISEDTAILKLSKLVPGNYTFSLTVVDSDGATNSTTANLTVNKAVDHHHHHH	65.5	–
AAV-binding protein No. 40 (Phe379Ser, Lys455Arg) (receptor) MGSAGESVQITLPKNEVQLNAYVLQEPPKGETYTYDWQLITHPRDYSGEMEGKHSQILKLSKLTPGLYESKVIVEGQNAHGEGYVNVTVKPEPRKNRPPIAIVSPQFQEISLPTTSTVIDGSQSTDDDKIVQYHWEELKGPLREERISEDTAILKLSKLVPGNYTFSLTVVDSDGATNSTTANLTVNKAVDHHHHHH	77.4	–
AAV-binding protein No. 41 (Glu453Gly, Ser476Arg) (receptor) MGSAGESVQITLPKNEVQLNAYVLQEPPKGETYTYDWQLITHPRDYSGEMEGKHSQILKLSKLTPGLYEFKVIVEGQNAHGEGYVNVTVKPEPRKNRPPIAIVSPQFQEISLPTTSTVIDGSQSTDDDKIVQYHWEELKGPLRGEKISEDTAILKLSKLVPGNYTFRLTVVDSDGATNSTTANLTVNKAVDHHHHHH	56.1	–
AAV-binding protein No. 42 (Ile319Phe, Pro322Leu, Lys448Arg) (receptor) MGSAGESVQFTLLKNEVQLNAYVLQEPPKGETYTYDWQLITHPRDYSGEMEGKHSQILKLSKLTPGLYEFKVIVEGQNAHGEGYVNVTVKPEPRKNRPPIAIVSPQFQEISLPTTSTVIDGSQSTDDDKIVQYHWEELRGPLREEKISEDTAILKLSKLVPGNYTFSLTVVDSDGATNSTTANLTVNKAVDHHHHHH	56.6	–
AAV-binding protein No. 44 (Gln327Arg, Lys338Arg, Leu348Pro) (receptor) MGSAGESVQITLPKNEVRLNAYVLQEPPRGETYTYDWQPITHPRDYSGEMEGKHSQILKLSKLTPGLYEFKVIVEGQNAHGEGYVNVTVKPEPRKNRPPIAIVSPQFQEISLPTTSTVIDGSQSTDDDKIVQYHWEELKGPLREEKISEDTAILKLSKLVPGNYTFSLTVVDSDGATNSTTANLTVNKAVDHHHHHH	76.1	–
AAV-binding protein No. 46 (Asn329Asp, Ile366Thr, Lys368Arg) (receptor) MGSAGESVQITLPKNEVQLDAYVLQEPPKGETYTYDWQLITHPRDYSGEMEGKHSQTLRLSKLTPGLYEFKVIVEGQNAHGEGYVNVTVKPEPRKNRPPIAIVSPQFQEISLPTTSTVIDGSQSTDDDKIVQYHWEELKGPLREEKISEDTAILKLSKLVPGNYTFSLTVVDSDGATNSTTANLTVNKAVDHHHHHH	49.3	–
AAV-binding protein No. 48 (Ala330Gly, Gln347Pro, Lys371Glu) (receptor) MGSAGESVQITLPKNEVQLNGYVLQEPPKGETYTYDWPLITHPRDYSGEMEGKHSQILKLSELTPGLYEFKVIVEGQNAHGEGYVNVTVKPEPRKNRPPIAIVSPQFQEISLPTTSTVIDGSQSTDDDKIVQYHWEELKGPLREEKISEDTAILKLSKLVPGNYTFSLTVVDSDGATNSTTANLTVNKAVDHHHHHH	88.4	–
AAV-binding protein No. 50 (Val332Gln, Tyr342Cys, Val412Ala) (receptor) MGSAGESVQITLPKNEVQLNAYQLQEPPKGETCTYDWQLITHPRDYSGEMEGKHSQILKLSKLTPGLYEFKVIVEGQNAHGEGYVNVTVKPEPRKNRPPIAIASPQFQEISLPTTSTVIDGSQSTDDDKIVQYHWEELKGPLREEKISEDTAILKLSKLVPGNYTFSLTVVDSDGATNSTTANLTVNKAVDHHHHHH	80.3	–
AAV-binding protein No. 51 (Leu333Pro, Pro337Leu, Thr350Met) (receptor) MGSAGESVQITLPKNEVQLNAYVPQEPLKGETYTYDWQLIMHPRDYSGEMEGKHSQILKLSKLTPGLYEFKVIVEGQNAHGEGYVNVTVKPEPRKNRPPIAIVSPQFQEISLPTTSTVIDGSQSTDDDKIVQYHWEELKGPLREEKISEDTAILKLSKLVPGNYTFSLTVVDSDGATNSTTANLTVNKAVDHHHHHH	66.7	–
AAV-binding protein No. 52 (Leu348Pro, Leu376Pro, Val396Ala) (receptor) MGSAGESVQITLPKNEVQLNAYVLQEPPKGETYTYDWQPITHPRDYSGEMEGKHSQILKLSKLTPGPYEFKVIVEGQNAHGEGYVNATVKPEPRKNRPPIAIVSPQFQEISLPTTSTVIDGSQSTDDDKIVQYHWEELKGPLREEKISEDTAILKLSKLVPGNYTFSLTVVDSDGATNSTTANLTVNKAVDHHHHHH	80.9	–
AAV-binding protein No. 54 (His363Leu, Ser364Pro, His389Leu) (receptor) MGSAGESVQITLPKNEVQLNAYVLQEPPKGETYTYDWQLITHPRDYSGEMEGKLPQILKLSKLTPGLYEFKVIVEGQNALGEGYVNVTVKPEPRKNRPPIAIVSPQFQEISLPTTSTVIDGSQSTDDDKIVQYHWEELKGPLREEKISEDTAILKLSKLVPGNYTFSLTVVDSDGATNSTTANLTVNKAVDHHHHHH	87.2	–
AAV-binding protein No. 55 (Gln365Arg, Ser370Ala, Glu391Lys) (receptor) MGSAGESVQITLPKNEVQLNAYVLQEPPKGETYTYDWQLITHPRDYSGEMEGKHSRILKLAKLTPGLYEFKVIVEGQNAHGKGYVNVTVKPEPRKNRPPIAIVSPQFQEISLPTTSTVIDGSQSTDDDKIVQYHWEELKGPLREEKISEDTAILKLSKLVPGNYTFSLTVVDSDGATNSTTANLTVNKAVDHHHHHH	65.7	–
AAV-binding protein No. 56 (Asn324Ser, Thr341Ala, Leu369Pro, Phe416Ser) (receptor) MGSAGESVQITLPKSEVQLNAYVLQEPPKGEAYTYDWQLITHPRDYSGEMEGKHSQILKPSKLTPGLYEFKVIVEGQNAHGEGYVNVTVKPEPRKNRPPIAIVSPQSQEISLPTTSTVIDGSQSTDDDKIVQYHWEELKGPLREEKISEDTAILKLSKLVPGNYTFSLTVVDSDGATNSTTANLTVNKAVDHHHHHH	81.3	–
AAV-binding protein No. 57 (Gln334Arg, Val381Ala, His389Arg, Tyr393Cys) (receptor) MGSAGESVQITLPKNEVQLNAYVLREPPKGETYTYDWQLITHPRDYSGEMEGKHSQILKLSKLTPGLYEFKAIVEGQNARGEGCVNVTVKPEPRKNRPPIAIVSPQFQEISLPTTSTVIDGSQSTDDDKIVQYHWEELKGPLREEKISEDTAILKLSKLVPGNYTFSLTVVDSDGATNSTTANLTVNKAVDHHHHHH	79	–
AAV-binding protein No. 103 (AVR8g + Glu340Val) (receptor) MGSAGESDQITLPKNEVQLNAYVLQEPPKGVTCTYDWQLITHPRDYSGEMEGEHSQILKLSNLTPGLYEFKVIVEGQNAHSEGYVNVTVEPEPRKNRPPIAIVSPQFQEISLPTTSTVIDGSQSTDDDKIVQYHWEELKGPLREEKISEDTAILKLSKLVPGNYTFRLTVVDSDGATDSTTANLTVNKAVDHHHHHH	–	35
